B1: EHMT1 (parent)
chain: EEINKNISDFGRQQLLPPFPSLHQ
B2: TRIM43 (parent)
chain: RAQMIRNEYRKLHPVLHKEEKQHL

Variants of: B1
Test: protein stability index of a GFP-peptide fusion (GPS, HEK-293T) (PSI 1-6); higher = more stable
Conditions: c terminus: a fixed tail appended
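Note: lentivirally expressed fusions sorted by FACS into six bins by GFP to DsRed ratio, PSI derived from sequencing read proportions per bin multiplied by bin number.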

Variant | protein stability index
EEINKNISDFGRQQLLPPFTSLHQ | 3.01
EEINKNISDFGRQQLLPPFDSLHQ | 3.5
EEINKNISDFGRQQLLPPFQSLHQ | 3.31
EEINKNISDFGRQQLLPPFGSLHQ | 3.37
EEINKNISDFGRQQLLPPFESLHQ | 3.73
EEINKNISDFGRQQLLPPFFSLHQ | 2.61
EEINKNISDFGRQQLLPPFRSLHQ | 2.5
EEINKNISDFGRQQLLPPFKSLHQ | 3.3
EEINKNISDFGRQQLLPPFSSLHQ | 3.22
EEINKNISDFGRQQLLPPFMSLHQ | 2.51
EEINKNISDFGRQQLLPPFNSLHQ | 3.32
EEINKNISDFGRQQLLPPFVSLHQ | 3.02
EEINKNISDFGRQQLLPPFLSLHQ | 2.73
EEINKNISDFGRQQLLPPFCSLHQ | 2.87
EEINKNISDFGRQQLLPPFISLHQ | 2.69
EEINKNISDFGRQQLLPPFWSLHQ | 1.82
EEINKNISDFGRQQLLPPFHSLHQ | 2.69
EEINKNISDFGRQQLLPPFYSLHQ | 2.59
EEINKNISDFGRQQLLPPFASLHQ | 2.82
EEINKNISDFGRQQLLPPNPSLHQ | 4.37
EEINKNISDFGRQQLLPPRPSLHQ | 4.1
EEINKNISDFGRQQLLPPIPSLHQ | 3.61
EEINKNISDFGRQQLLPPGPSLHQ | 4.05
EEINKNISDFGRQQLLPPSPSLHQ | 4.19
EEINKNISDFGRQQLLPPEPSLHQ | 4.39

Variant | protein stability index
EEINKNISDFGRQQLLPPHPSLHQ | 3.69
EEINKNISDFGRQQLLPPLPSLHQ | 3.54
EEINKNISDFGRQQLLPPWPSLHQ | 2.01
EEINKNISDFGRQQLLPPTPSLHQ | 4.04
EEINKNISDFGRQQLLPPKPSLHQ | 3.99
EEINKNISDFGRQQLLPPMPSLHQ | 4.19
EEINKNISDFGRQQLLPPCPSLHQ | 4.24
EEINKNISDFGRQQLLPPQPSLHQ | 4.38
EEINKNISDFGRQQLLPPYPSLHQ | 3.29
EEINKNISDFGRQQLLPPPPSLHQ | 4.41
EEINKNISDFGRQQLLPPDPSLHQ | 4.42
EEINKNISDFGRQQLLPPVPSLHQ | 3.76
EEINKNISDFGRQQLLPPAPSLHQ | 4.02
EEINKNISDFGRQQLLPMFPSLHQ | 2.95
EEINKNISDFGRQQLLPLFPSLHQ | 3.07
EEINKNISDFGRQQLLPQFPSLHQ | 3.63
EEINKNISDFGRQQLLPYFPSLHQ | 2.94
EEINKNISDFGRQQLLPVFPSLHQ | 3.34
EEINKNISDFGRQQLLPSFPSLHQ | 3.12
EEINKNISDFGRQQLLPRFPSLHQ | 3.57
EEINKNISDFGRQQLLPNFPSLHQ | 3.05
EEINKNISDFGRQQLLPWFPSLHQ | 3.06
EEINKNISDFGRQQLLPTFPSLHQ | 2.92
EEINKNISDFGRQQLLPPFPSLWQ | 2.6
EEINKNISDFGRQQLLPPFPSLCQ | 2.66

Variant | protein stability index
EEINKNISDFGRQQLLPPFPSLTQ | 3.39
EEINKNISDFGRQQLLPPFPSLVQ | 2.97
EEINKNISDFGRQQLLPPFPSLSQ | 2.86
EEINKNISDFGRQQLLPPFPSLAQ | 3.4
EEINKNISDFGRQQLLPPFPSLYQ | 2.14
EEINKNISDFGRQQLLPPFPSLQQ | 3.02
EEINKNISDFGRQQLLPPFPSLDQ | 3.85
EEINKNISDFGRQQLLPPFPSLRQ | 3.08
EEINKNISDFGRQQLLPPFPSLNQ | 3.07
EEINKNISDFGRQQLLPPFPSLMQ | 2.48
EEINKNISDFGRQQLLPPFPSLEQ | 3.59
EEINKNISDFGRQQLLPPFPSLPQ | 3.17
EEINKNISDFGRQQLLPPFPSLLQ | 2.53
EEINKNISDFGRQQLLPPFPSLKQ | 3.61
EEINKNISDFGRQQLLPPFPSLFQ | 2.38
EEINKNISDFGRQQLLPPFPSLGQ | 3.14
EEINKNISDFGRQQLLPPFPSLIQ | 2.93
EEINKNISDFGRQQLLPPFPSYHQ | 2.47
EEINKNISDFGRQQLLPPFPSFHQ | 2.79
EEINKNISDFGRQQLLPPFPSQHQ | 3.65
EEINKNISDFGRQQLLPPFPSHHQ | 3.42
EEINKNISDFGRQQLLPPFPSNHQ | 4.04
EEINKNISDFGRQQLLPPFPSCHQ | 3.82
EEINKNISDFGRQQLLPPFPSIHQ | 3.18
EEINKNISDFGRQQLLPPFPSSHQ | 4.33

Variant | protein stability index
EEINKNISDFGRQQLLPPFPSMHQ | 3.1
EEINKNISDFGRQQLLPPFPSDHQ | 4.7
EEINKNISDFGRQQLLPPFPSGHQ | 3.81
EEINKNISDFGRQQLLPPFPSRHQ | 3.62
EEINKNISDFGRQQLLPPFPSKHQ | 4.33
EEINKNISDFGRQQLLPPFPSPHQ | 3.91
EEINKNISDFGRQQLLPPFPSAHQ | 3.73
EEINKNISDFGRQQLLPPFPSTHQ | 3.85
EEINKNISDFGRQQLLPPFPSVHQ | 3.21
EEINKNISDFGRQQLLPPFPSEHQ | 4.75
EEINKNISDFGRQQLLPPFPSWHQ | 2.57
EEINKNISDFGRQQLLPPFPSLHA | 2.42
EEINKNISDFGRQQLLPPFPSLHF | 2.81
EEINKNISDFGRQQLLPPFPSLHW | 3.45
EEINKNISDFGRQQLLPPFPSLHR | 2.96
EEINKNISDFGRQQLLPPFPSLHE | 4.23
EEINKNISDFGRQQLLPPFPSLHC | 1.91
EEINKNISDFGRQQLLPPFPSLHH | 2.43
EEINKNISDFGRQQLLPPFPSLHD | 4.02
EEINKNISDFGRQQLLPPFPSLHS | 2.5
EEINKNISDFGRQQLLPPFPSLHI | 2.17
EEINKNISDFGRQQLLPPFPSLHN | 2.9
EEINKNISDFGRQQLLPPFPSLHK | 3.55
EEINKNISDFGRQQLLPPFPSLHY | 2.49
EEINKNISDFGRQQLLPPFPSLHT | 2.34

Variant | protein stability index
EEINKNISDFGRQQLLPPFPSLHV | 2.65
EEINKNISDFGRQQLLPPFPSLHM | 2.77
EEINKNISDFGRQQLLPPFPSLHL | 3.78
EEINKNISDFGRQQLLPPFPSLHP | 3.43
EEINKNISDFGRQQLLPPFPSLHG | 2.53
EEINKNISDFGRQQLLPPFPVLHQ | 2.82
EEINKNISDFGRQQLLPPFPMLHQ | 2.01
EEINKNISDFGRQQLLPPFPELHQ | 3.59
EEINKNISDFGRQQLLPPFPGLHQ | 2.7
EEINKNISDFGRQQLLPPFPPLHQ | 3.54
EEINKNISDFGRQQLLPPFPWLHQ | 1.98
EEINKNISDFGRQQLLPPFPRLHQ | 3.21
EEINKNISDFGRQQLLPPFPKLHQ | 3.68
EEINKNISDFGRQQLLPPFPDLHQ | 3.9
EEINKNISDFGRQQLLPPFPNLHQ | 2.73
EEINKNISDFGRQQLLPPFPFLHQ | 2.59
EEINKNISDFGRQQLLPPFPLLHQ | 2.9
EEINKNISDFGRQQLLPPFPQLHQ | 3.33
EEINKNISDFGRQQLLPPFPTLHQ | 3
EEINKNISDFGRQQLLPPFPYLHQ | 2.54
EEINKNISDFGRQQLLPPFPHLHQ | 3.58
EEINKNISDFGRQQLLPPFPCLHQ | 3.06
EEINKNISDFGRQQLLPPFPILHQ | 2.62
EEINKNISDFGRQQLLPPFPALHQ | 2.36

Variants of: B2
Test: as above
Conditions: c terminus: a fixed tail appended

Variant | protein stability index
RAQCIRNEYRKLHPVLHKEEKQHL | 3.23
RAQEIRNEYRKLHPVLHKEEKQHL | 3.86
RAQAIRNEYRKLHPVLHKEEKQHL | 3.49
RAQHIRNEYRKLHPVLHKEEKQHL | 3.46
RAQFIRNEYRKLHPVLHKEEKQHL | 2.61
RAQGIRNEYRKLHPVLHKEEKQHL | 3.66
RAQDIRNEYRKLHPVLHKEEKQHL | 3.53
RANMIRNEYRKLHPVLHKEEKQHL | 3.19
RACMIRNEYRKLHPVLHKEEKQHL | 2.68
RARMIRNEYRKLHPVLHKEEKQHL | 2.81
RAHMIRNEYRKLHPVLHKEEKQHL | 3.13
RAGMIRNEYRKLHPVLHKEEKQHL | 3.04
RALMIRNEYRKLHPVLHKEEKQHL | 2.41
RAMMIRNEYRKLHPVLHKEEKQHL | 2.82
RAAMIRNEYRKLHPVLHKEEKQHL | 2.67
RAYMIRNEYRKLHPVLHKEEKQHL | 2.54
RAPMIRNEYRKLHPVLHKEEKQHL | 3.39
RAIMIRNEYRKLHPVLHKEEKQHL | 2.78
RASMIRNEYRKLHPVLHKEEKQHL | 3.22
RAWMIRNEYRKLHPVLHKEEKQHL | 2.79
RADMIRNEYRKLHPVLHKEEKQHL | 3.64
RATMIRNEYRKLHPVLHKEEKQHL | 3.27

Variant | protein stability index
RAVMIRNEYRKLHPVLHKEEKQHL | 2.63
RAFMIRNEYRKLHPVLHKEEKQHL | 2.33
RAEMIRNEYRKLHPVLHKEEKQHL | 3.48
RAKMIRNEYRKLHPVLHKEEKQHL | 3.7
REQMIRNEYRKLHPVLHKEEKQHL | 4.26
RFQMIRNEYRKLHPVLHKEEKQHL | 1.95
RGQMIRNEYRKLHPVLHKEEKQHL | 3.61
RHQMIRNEYRKLHPVLHKEEKQHL | 3.26
RMQMIRNEYRKLHPVLHKEEKQHL | 2.91
RCQMIRNEYRKLHPVLHKEEKQHL | 3.35
RDQMIRNEYRKLHPVLHKEEKQHL | 3.51
RQQMIRNEYRKLHPVLHKEEKQHL | 3.09
RIQMIRNEYRKLHPVLHKEEKQHL | 2.14
RKQMIRNEYRKLHPVLHKEEKQHL | 3.2
RLQMIRNEYRKLHPVLHKEEKQHL | 2.96
RYQMIRNEYRKLHPVLHKEEKQHL | 3.13
RPQMIRNEYRKLHPVLHKEEKQHL | 3.84
RSQMIRNEYRKLHPVLHKEEKQHL | 2.99
RNQMIRNEYRKLHPVLHKEEKQHL | 3.18
RTQMIRNEYRKLHPVLHKEEKQHL | 3.17
RRQMIRNEYRKLHPVLHKEEKQHL | 3.76
RWQMIRNEYRKLHPVLHKEEKQHL | 2.27

Variant | protein stability index
RVQMIRNEYRKLHPVLHKEEKQHL | 2.78
CAQMIRNEYRKLHPVLHKEEKQHL | 2.17
KAQMIRNEYRKLHPVLHKEEKQHL | 2.93
VAQMIRNEYRKLHPVLHKEEKQHL | 3.99
FAQMIRNEYRKLHPVLHKEEKQHL | 1.92
AAQMIRNEYRKLHPVLHKEEKQHL | 3.44
QAQMIRNEYRKLHPVLHKEEKQHL | 3.04
PAQMIRNEYRKLHPVLHKEEKQHL | 3.38
HAQMIRNEYRKLHPVLHKEEKQHL | 3.47
DAQMIRNEYRKLHPVLHKEEKQHL | 3.89
NAQMIRNEYRKLHPVLHKEEKQHL | 3.44
IAQMIRNEYRKLHPVLHKEEKQHL | 2.01
YAQMIRNEYRKLHPVLHKEEKQHL | 1.77
MAQMIRNEYRKLHPVLHKEEKQHL | 2.47
EAQMIRNEYRKLHPVLHKEEKQHL | 3.29
TAQMIRNEYRKLHPVLHKEEKQHL | 2.85
WAQMIRNEYRKLHPVLHKEEKQHL | 1.92
GAQMIRNEYRKLHPVLHKEEKQHL | 3.55
LAQMIRNEYRKLHPVLHKEEKQHL | 2.33
SAQMIRNEYRKLHPVLHKEEKQHL | 3.78
